“And” between values parts separate entries of the source, which are not always exact repeats. Equal entries are not always repeated.
Key:
purified protein [1] = substrate: CC(C)(COP(=O)(O)OP(=O)(O)OC[C@H]1O[C@@H](n2cnc3c(N)ncnc32)[C@H](O)[C@@H]1OP(=O)(O)O)[C@@H](O)C(=O)NCCC(=O)NCCSC(=O)CCC(=O)O; assay: purified protein; assay type: biochemical, Acinetobacter baumannii; details: pH 8.0 potassium phosphate buffer, co-substrate acetate, one experiment
purified protein [2] = substrate: CC(=O)O; assay: purified protein; details: pH 8.0 potassium phosphate buffer, co-substrate succinyl-CoA, one experiment

B1: DJ41_2796 (Acinetobacter baumannii ATCC 19606 = CIP 70.34 = JCM 6841) (protein)
chain: MSLSRIRLASLHDKVISAEQAAQFIENGMTVGMSGFTRAGEAKAVPQALVELAKKNPLKITLITGASLGNDLDKQLTEAGVLSRRMPFQVDNTLRRAINNGEVMFIDQHLSETVEQMRNQQLKRPDVAVIEAIAITEDGGIIPTTSVGNSASFAIFAEKVIVEINTSLSESFEGLHDIYIPTYRPTRTPIPLTKVDERIGTTAIQIDPSRIVGIVFNDTHDSPSTVTPPDDETQGIANHLIAFFEKEVAEGRLPKNLGPLQAGIGSIANAVLTGLKDSNFEDLIMYSEVLQDCTFELIDAGKMKFASGSSITLSAKCGEKVFGNIEAYKDKLVLRPQEISNHPELVRRLGIIGINTALEFDIYGNVNSTHVCGTKMMNGIGGSGDFARNAHLAIFVTKSIAKGGDISSIVPMVSHVDHSEHDVDILVTEQGLADLRGLAPRERARAIIDNCVHPLYRDALNDYFDRACAKGGHTPHLLREALSWHANFEETGQMLQPTPVAKSA
Km (purified protein [1]): 0.3418 mM
Vmax (purified protein [1]): 0.035 µmol/min
kcat (purified protein [1]): 6.99 s⁻¹
kcat/Km (purified protein [1]): 20500 M⁻¹ s⁻¹
Km (purified protein [2]): 14.74 mM and 39 mM
Vmax (purified protein [2]): 0.0335 µmol/min and 0.0415 µmol/min
kcat (purified protein [2]): 6.7 s⁻¹ and 8.31 s⁻¹
kcat/Km (purified protein [2]): 455 M⁻¹ s⁻¹ and 213 M⁻¹ s⁻¹

— publication PMC10891947, “Gene Expression of Ethanol and Acetate Metabolic Pathways in the Acinetobacter baumannii EmaSR Regulon” (Microorganisms, 2024)
